Assay: label from the status in PepcDB records

Sequence	protein production
MTDQSVRIIEAALRLYMKKPPHEVSIEEIAREAKVSKSLIFYHFESKQKLLEEAVMHAFRKMMEEFNPRSVEEVVDYGIGFIAERREFIEFMMYALSQVRIEELERMFGEALEKVASLFEGCRHPRETAIALMAMLDGLSIYSLYFDLGKLEKYREIAMEFVESRRVRA	not failed
MTDTLLVTSTNAGTGKTAVSLALARLAGDRDRTVGYMKPKGTRLQSNVGKTLDADPLLARDLLDLDAEIHDLEPVVYSPTFIQGAVRGREDSANLADRVRDAYDELATDRDVMLVEGAGTPTTGGIVDLTDGDIAALLDARAIVVADYTGPSDVDDVLAAADALGDRCAGVVFNAVADAVYDDVESEVTPFLESQGIPVLGVLPVERDLAGVTVDDLASELGATVLTEDTATTDAIVERFLVGAMSSESALSHFRRTKDAAVITGGDRADIQTAALDAPGVQCLVLTGGHRPSGAVLGKATDAGVPVLSVDADTLTTLERAEELVRDGRVRDEHTVDVMQRLLHDHADTDRLLD	failed
MTDTPVPSEATASGWRRALPVIISLAILAMALHALSSQFTDHGYRQIRQAFRALGAGQIALTLLLGLSSYACLVGFDWVGLKRTGKRLHPARVGITAFMAHAVGQTLGFAALTGGAVRLRGYGSVGLTLAEIGQVVLMSTLGFIFGAWVLLGIALMLEPEAAARALPIAAEGIRIAGIALLAGYLAMLVLVGRHGREFGIRSHRFWLPDRTTVLGVTALSVVELGLAAAAFYVLLPPDPGTGYFGFIGIWLVAVVAGLISTVPAGLGVFEWSLLKLLPHVTPAAVLAAALAYRVTYYIVPLLISVAMAAATGLRAPVRASASTARTVWKTLRPWLPQILALAVFAVGAALVIDGTLPTPRARQEVAPLPLIETSHLLVSLGGMLLLLIGQGLQRRSHSAWVLALGVCVLLPPLSLLRGSHISVSLSAALAAVALWAARREFYRQGALLDEAWSWRWLSNLGLVLVATFWLLFFVYSHVEYSNDLWWQFATSANAPRALRALLILCVGVILFGTARLLRGGRRPMPPADAQALQALAPVLASSADTQACLALTGDKAFLRDEKGLGFVMMQRYGGSLISMGDPVGPPEVARALIWRFREEADHMGLRPVFYQVGEKYWQTYLDMGLTLVKLGEEAIVPLEGFTLEGRDRADLRQAWNRGKRGGLSFRMLQPEQVDAVMAELGEVSEQWLDEKAGEEKGFSLGSFDPDYLRRFPMAVAEAEGKIVAFANVWCAPAGGELSVDLMRHSAQAPKGTMDFLFIELFLWGHANGYTRFSLGMAPLSGLAEHRLAGRWNRFASLVARHGERFYGFSGLRRFKSKFAPTWRPRYLVAPGGMHLPAALLDVTRLISVDPGRQD	failed
MTDTRPAQSLGPGLQPETRSLGDEPVRLVDTTMLYAPRSGGVRRYLSSKRAWLASHRPDVRHTLVVPGARDFHDGRGQVSIYAAPLPFGAGYRWPVVKQTWMERLIRQQPDLIEAGDPYTPGLAALRAGDALGVPVVGFCHTDLGKLAALHIGDWAEKPVQKRWAAIYRQFDQAVAPSRFIAGRLIEAGVRDAIGLPLGVDTAIFHPERGDRDGLRRRLGLSPKDRLLVFAGRPAREKKLDVLVAAVERLGDPYKLLFVGAGGGAPVSDRTLCIDYVRDPVELASILASCDAFVHANDNEPFGLIVLEAMACGLPVVGVSAGGVAESVDAAVGQLAVASEATAFADAIEALFERDVTVVGEAARRRAVERHGWDAVFTELCLIYDRLTGRRAFSSASAHAGH	failed
MTDTSTADVDLVGEEMALNVARTALFAALMGAFAYVSFPYPLSPAPVTLQVLGVFLAGLLLGPLWGGAAMVVYLLAGVLGAPVFSAGEAGIGVILGPQGGYLLSYPFAAAIVGGIVHRGTDIKPLETVSAALMIAAMILSTVVIYAFGIPFMWWNLEMTLLNAVIAGGVVFIPAEAAKMAAAIGIVRSDAIRAE	failed
MTDVRHCPAVLIAAPASGQGKTTVTAALARLHRNRGRKVRVFKCGPDFLDPMILERASGAAVYQLDMWMVGEQESRRLLWEAAGEADLILIEGVMGLFDGTPSSADLARHFGVPVLGVIDGTAMAQTFGALALGLARYQPDLPFAGVLANRVGTLRHAQLLEGSLTEGLRWYGALSRETDIELPSRHLGLVQASELNDLDLRLDAAAEALASSCQVELPPAVSFAAPTPVACAPLLKGVRIAVARDEAFAFTYGASLDLLRAMGAQLSFFSPIHDTQLPDADSLYLPGGYPELHHQALARNSSMLQAIRAHHAAGKPLLAECGGMLYLLDSLTDVEGQRAELLGLLPGDAVMQKRLAALALQAVDLPEGSLRGHTYHHSLTSTELLPIARGLSPNGGRGAEAVYRQGRMTASYVHFYFPSNPAAVAALFAPGAPVEPVLAEGVAGELEHHHHHH	failed
MTDYASLLMSLTSGSALDSGCMEQLIQEGLYVTPALFSVDRAALWVLDKDEQAYLCEADFFDGMIDHRSSQRLTKKEDAELFSFLESTSEIIINNYFTYESFGLNTSRILSRFQLCSLLLIPLQIKGENRGFIFLGDSQKNIEWSPDVLFASRILVQLFERALLALDNSVAETKLQHQYQLMSEIEKLAK	failed
MTDYGEEQRNELEALESIYPDSFTVLSENPPSFTITVTSEAGENDETVQTTLKFTYSEKYPDEAPLYEIFSQENLEDNDVSDILKLLALQAEENLGMVMIFTLVTAVQEKLNEIVDQIKTR	not failed
MTEDERFAWLQLAFTPYIGAESFLLLMRSFGSAQNALSAPAEQVAPAVRHKHALEAWRNAEKRALARQAAEAALEWEMRDGCRLMLLQDEDFPEMLTQGLTAPPVLFLRGNVRLLHKPSAAIVGSRHATPQAMRIAKDFGRALGGKGIPTVSGMASGIDTAAHQGALEAEGGTVAVWGTGIDRIYPPANKNLAYEIAEKGLIVSEFPIGTRPYAGNFPRRNRLIAALSQVTLVVEAALESGSLITAGLAAEMGREVMAVPGSIDNPHSKGCHKLIKDGAKLTECLDDILNECPGLLQNTGASSYSINKDTPDTGRRAVQTAYAPPPAAKMPSEGAAGGTAVGGILDKMGFDPVHPDVLAGQLAMPAADLYAALLELELDGSVAAMPGGRYQRIRT	failed
MTEEFNESMINDIKEGDKVTGEVQQVEDKQVVVHINGGKFNGIIPISQLSTHHIENPSEVVKVGDEVEAYVTKIEFDEENDTGAYILSKRQLETEKSYEYLQEKLDNDEVIEAEVTEVVKGGLVVDVGQRGFVPASLISTDFIEDFSVFDGQTIRIKVEELDPENNRVILSRKAVEQLENDAKKASILDSLNEGDVIDGKVARLTNFGAFINIGGVDGLVHVSELSHGTCSNTRRSCVSRLEHHHHHH	not failed
MTEEQVQHWFDMFGSLGYIAGFLLPFIEAFIPILPIIVFIIVNVNAFGWFIGTVLAWAGTVAGSYIVFLFFRRLNNTKYMKKVQQRTSVQRLIHFIDRRGVIPIFILMCFPFTPSALVNIVASMSHIKAHAYLTVLIISKFIMIGLVGWLGNDITTLFSNPTRLITIVVVIIIVWFVGRKIEKHFMSSSEE	failed
MTEGGRVSNTSRVTRRTGLRTAAAVAAALPLLSASPASASRNRGRRLDVMTFNLRFASASEPHSWAVRRPVMRELLRRERPHVIGTQEGLYQQVRDIEADLGPHYDWIGTGRAGGSRDEFMAVFYDTRRLAPLEYDHFWLSDTPDVIGSNTWGGGSIRMVTRVRFRDLADGDRPFHFLNTHLDNASQYARARAAALIADRIAGLDRSQPLVVTGDFNAAAHKNAVYETMLGAGLVDTWDTAAERGKLYGTFHGYKPLVPDGDRIDWILASPGVAAHCASINAFSSNGQFPSDHLPVQASLRLA	failed
MTELVQQLALLDALLSNWDGVLVRMGAPDVLRDEALAALAVKLSSAESPDDLDLLLDDLFDLVEDTPAYDYVRGLIARARLDTGTVAKTRGGYAGELVSDDEKSLLFGASRLAGRALGNAVSADVEPCQVEVFFATNRKSSDASDLQFTGEHDAGGYTCGVAHVTIPVGVHRAGVLEGKRWWHLLREKDDSRRYVVLGSVEKLAEDLFTTRIVEGAPECRDLLVFLHGFNVTFEDAARQAAQFAFDLQFQGRVVLYSWPSLGSLAGYCADEERAFLSNGRFAGFLGMLEDGPWDKVHILAHSMGNRVMLYGLSGNSWPNGRISQVVFAAADVYVETFRELFPKIREKAALYTSYTSKKDRALLISGILHKAKRIGISRGEPFVMDGLETIDASKVDNGFPGHGYFAEETKLIEDISQLLGKGLSAGRRKLYQPPSKAYWDFR	failed
MTENNQTAPNPESLDGLSYEEAREQLVAVVGRLEAGGASLEESLALWERGEALAKRCEDWLEGARKRLATARDASSDGGTPA	failed
MTENSRKTATELFEFLDGLGISHTTKQHEPVFTVAESQSLRDLIPGGHTKNLFVKDKKDQYFVLTVEENAVVDLKSVHKTIGAASRVSFGRPEKMLEYLGVVPGSVTVFGAINDTARQVTFVLDSDLLENELVNGHPLSNDQTTTIASKDLIRFLEATGHAPLVLKVSE	not failed
MTENTNFKSGYSEVNGLKMYYEIHGEGKPLVLIHGGGSTIKTSFGNILPLLLKSRQIIVMELQAHGHTGDRETDLTFEQDADDVAKLLENLQITKADFLGFSNGGHTTIEIALRHKKIVDKILLASAFYKRDAVVPEFWDGFDSATLEMMPKVLQEGYLKANDDEKGLLNMFKKDVQKMKDFKGWTDEQMKSITAKTLIINGNNDVGSIEHAVEMYRILPNCELAILPGGHGTYLGAIESLPNGEWTMKYVAELIEEFFDKH	failed
MTEQHSHQFERGTDGPKVILVGVDGSDSSLHAAAYAAGLARRQHALLAVVYVQPVMAAGAALGVPVADTTDEIAADLVQYIRDATERVKDIFEVRWEFHTFRGDPYNGLVTAADELKADAVVVGASEQAGHRIVGSVAVRLVKAGRWPVTVVP	not failed
MTETDKKQEQENHAECEDKPKPCCVCKPEKEERDTCILFNGQDSEKCKEFIEKYKECMKGYGFEVPSAN	not failed
MTETKTIRFLSIIGCLLAGMAASCSSRQVAPNEEGISVQKMTGFPEGEPGFSLGVSACYAGIYQGELLIAGGCNFPETPAAEGGKKKFYQGIYAADASADSVFVWRKVGQLPVAAAYGVSVSTPRGIVCVGGSNENGSLSTVYRLSLSDDKQAVIVDTLPSLPCTMDNMSGSVVDYTLFVAGGNVNGKPSNGLYCLNLGNPETGWQQLPDFPGAPRVQPVCVGQRKENETLLYLWGGFSGAFDGRSATLSTDGYCYSPSLQQWQPVSTPIGSDSVPVALGGGAGIALTDSLILCTGGVNKDIFLSALQREEMMKAAVTGGNQAAVDSLKSEAKTYMLHPAEWYRFNDRILIYNTRRDKWEEAVRSQDVARAGAALTTGQGQTFFNINGELKPGIRTPEIAKIMID	failed
MTEYWVSQGNKWCEFCKIWIQNNPTSIRNHDLGKRHRECVDKKLTDMRERSAAKDKELKKNEKLLQQIEAKATRSYQKDIATAQQVAKANGAPEDGTSDWMLDSASGYYYNQTNGLHYDSQSGFYYSDSIGHWVTQDEAYAAVKTSSGTKVPLVKKPVSSSGAGPSVGKPPGRLVTASLNPKRAVKGAASSVDLGNNKRKRQDEKPKKVSAEEKAALKAREAARKRVEDREKPLLGLYNRPF	failed
MTFGQSIGTCFAKYITFSGRASRPEYWYFFLFLLLGSIAATMLDALLFDAVTTTVETSDTSTSARIENTGPIAPIFSLAVFLPHLAVAFRRMHDTGRSGIYAILPFLLMLCAVLVLVFGVGIASSFAAGGSLDLLFTRATLLLLIPTLAVLFISPLLVLWWLTRPSQPGTNQYGPNPVRAVAS	failed
MTFGSLFRNQTRTVVKGHIFNLPNSLSILRILLIPWFIYYLDAGQTHIALIIMVVALLSDWFDGQMARWTNEVSDMGKILDPLADKLCLASVALYYLWKGELPVWFVVFVVFRDLVIFLGAAWIRHRHNVLTTSLWPGKWAVGFVSMMFISMVWPLPVFRQWPVKEFFMYLSAATLFYSFVEYCIRFYKIQKGAEFKA	failed

— a protein production outcome set (Wang et al. 2014)
